In PMC10545747 (2023):

Assays:
[1] = molecular target: T1, XQ2 (macrocyclic (cyclic) peptide); assay: MST; 2 M (NH4)2SO4
[2] = molecular target: T1, XQ2; assay: SPR

Binder | Kd [1] | Kd [2]
fluorescent labeled hcGAS (enzyme, fluorescent label (dye and site not stated)) MQPWHGKAMQRASEAGATAPKASARNARGAPMDPTESPAAPEAALPKAGKFGPARKSGSRQKKSAPDTQERPPVRATGARAKKAPQRAQDTQPSDATSAPGAEGLEPPAAREPALSRAGSCRQRGARCSTKPRPPPGPWDVPSPGLPVSAPILVRRDAAPGASKLRAVLEKLKLSRDDISTAAGMVKGVVDHLLLRLKCDSAFRGVGLLNTGSYYEHVKISAPNEFDVMFKLEVPRIQLEEYSNTRAYYFVKFKRNPKENPLSQFLEGEILSASKMLSKFRKIIKEEINDIKDTDVIMKRKRGGSPAVTLLISEKISVDITLALESKSSWPASTQEGLRIQNWLSAKVRKQLRLKPFYLVPKHAKEGNGFQEETWRLSFSHIEKEILNNHGKSKTCCENKEEKCCRKDCLKLMKYLLEQLKERFKDKKHLDKFSSYHVKTAFFHVCTQNPQDSQWDRKDLGLCFDNCVTYFLQCLRTEKLENYFIPEFNLFSSNLIDKRSKEFLTKQIEYERNNEFPVFDEF | 1.8 µM | 
N-terminally truncated human cGAS (hcGAS-ΔN, residues 147–522) (domain or fragment) PVSAPILVRRDAAPGASKLRAVLEKLKLSRDDISTAAGMVKGVVDHLLLRLKCDSAFRGVGLLNTGSYYEHVKISAPNEFDVMFKLEVPRIQLEEYSNTRAYYFVKFKRNPKENPLSQFLEGEILSASKMLSKFRKIIKEEINDIKDTDVIMKRKRGGSPAVTLLISEKISVDITLALESKSSWPASTQEGLRIQNWLSAKVRKQLRLKPFYLVPKHAKEGNGFQEETWRLSFSHIEKEILNNHGKSKTCCENKEEKCCRKDCLKLMKYLLEQLKERFKDKKHLDKFSSYHVKTAFFHVCTQNPQDSQWDRKDLGLCFDNCVTYFLQCLRTEKLENYFIPEFNLFSSNLIDKRSKEFLTKQIEYERNNEFPVFDEF |  | 86.5 µM
